Experimental data reported in patent publication US12215162B2, “BAFF-R targeted chimeric antigen receptor-modified T-cells and uses thereof” (CITY OF HOPE, priority 2016, dated 2025).

Columns and labels:
[1] = system: primary CLL and MCL samples; test: ADCC against primary samples from rituximab-treated patients; assay type: cell-based, human; settings: CLL (n=3) and MCL (n=2), E:T 20:1
Protocol: FIGS. 3A and 3B are graphs showing BAFF-R monoclonal antibodies induce in vitro Antibody Dependent Cell-Mediated Cytotoxicity (ADCC) against primary B-cell tumors. Antibody-dependent cell-mediated cytotoxicity (ADCC) effects were measured by chromium-51 release after incubation with C55, C90, or rituximab and effectors (NK cells). […] Data are shown as the mean±s.d. of triplicate samples. *P<0.05 compared with NK cells by two-tailed Student's t-test.
(§1) Cytotoxicity assays. Target cells (L cells, human tumor lines, primary patient samples) were labeled with chromium-51 (51Cr, Perkin Elmer, Waltham, MA) for a 51Cr release assay. Briefly, antibodies and effectors (NK cells or complement serum standard [Sigma Aldrich, St. Louis, MO]), were added to labeled target cells and incubated up to 18 hours. NK cells were enriched from PBMC (NK cell enrichment kit, Stemcell Technologies, Vancouver, Canada). 51Cr released into supernatant was detected with a Wizard Automatic Gamma Counter (Perkin Elmer).

JeKo-1-CD20-KO clone 25 = test: ADCC against rituximab-resistant JeKo-1-CD20-KO; assay type: cell-based, human; settings: NK cells E:T 20:1
Protocol: FIGS. 5A, 5B and 5C are images or graphs showing chimeric BAFF-R antibodies induce ADCC on drug resistant lymphoma models in vitro. FIG. 5A is a scatterplot of FACS analysis showing CD20 binding on JeKo-1 cells following CRISPR/HDR knock-out of CD20 gene. CD20 expression on selected CD20−/−clone #25 compared to WT JeKo-1. ADCC effects measured by chromium-51 release after incubation with C55, C90, or rituximab and effectors NK cells (E:T=20:1). Percentage of cell specific lysis of target cells: rituximab-resistant JeKo-1-CD20-KO (FIG. 5B) and ibrutinib-resistant Z-138 and SP49-IR (FIG. 5C). All data are representative of two or more identical experiments. Data are shown as the mean±s.d. of triplicate samples. *P<0.05 compared with NK cells by two-tailed Student's t-test.
as §1
Generation of JeKo-1-CD20-KO. […]

JeKo-1-CD20-KO = test: In vivo JeKo-1-CD20-KO tumor model, antibody treatment; parameters: species or system NSG mice
Excerpt: (§2) FIGS. 6A and 6B are images and FIG. 6C are graphs showing chimeric antibodies targeting human BAFF-R elicited in vivo therapeutic effects against drug resistant B-cell tumors. Bioluminescence images of mice challenged with luciferase-expressing tumors JeKo-1-CD20-KO cells (FIG. 6A) or ibrutinib-resistant Z-138 cells (FIG. 6B) followed by antibody treatments as in FIG. 4. Control group mice received PBS, NK cells alone, or rituximab on the same schedule. […] Tumor free rate and survival differences between experimental and all control groups were analyzed by log-rank test (** P<0.001). Data are representative of three independent experiments.
(§3) In vivo studies. For tumor models, stable, luciferase-expressing tumors lines were established for bioluminescent imaging in mouse models. Briefly, a luciferase gene was introduced into tumor lines by a lentivirus gene delivery system (pLenti7.3/V5-DEST Gateway Vector Kit, Life Technologies, Carlsbad, CA). The minimum lethal dose per mouse was determined for each tumor cell line by dose titration. Tumor cells were injected intravenously (IV) and mice were monitored by in vivo bioluminescence imaging for minimum tumor dose to ensure engraftment. Minimum lethal tumor doses were 1×10^6 JeKo-1, 5×10^5 RS4; 11, 5×10^5 JeKo-1-CD20-KO, or 2.5×10^4 Z-138 cells. […]

[2] = system: JeKo-1, SU-DHL-6, Raji, and RL; test: Flow cytometry binding to non-Hodgkin lymphoma lines; parameters: species or system human; settings: Alexa Fluor 488 conjugated chimeric antibody
Excerpt: FIGS. 1A, 1B, 1C, 1D and 1E are FACS images showing generation and specificity of novel monoclonal antibodies against human BAFF-R. FIG. 1A is a FACS analysis of cell surface expression of hBAFF-R-GFP fusion protein in mouse fibroblast L cells. Gated on GFP-positive cells, engineered L cell clone (right plot) is compared to parental L cells (left plot). Clone D2C was selected for further studies. FIGS. 1B, 1C, 1D and 1E are FACS traces of fluorescent counts of anti-BAFF-R antibodies binding cell lines and patient samples. […] BAFF-R-negative 293T embryonic kidney cell line was used as a control. […] Parental L cells and secondary anti-hIgG-APC antibodies only were used as controls. […] The data are representative of three independent experiments. For all of FIGS. 1B-1E, the traces from top to bottom as shown in the figures correlate with the variables (e.g., antibody type or cell type) used from top to bottom shown below or next to the figures.
FIG. 10 are results of FACS analyses showing hBAFF-R mAbs recognized non-Hodgkin lymphoma cell lines in vitro. […] The traces from top to bottom as shown in the figures correlate with the variables (e.g., antibody type or cell type) used from top to bottom shown next to the figures.

Z-138 = test: In vivo ibrutinib-resistant Z-138 tumor model, antibody treatment; parameters: species or system NSG mice; settings: vs PBS or NK only
Excerpt: as §2, §3

[3] = system: BAFF-R-expressing L cells and JeKo-1; test: ADCC chromium-51 release assay with NK cells; assay type: cell-based; settings: NK cells E:T 20:1; controls parental L cells and U266
Protocol: Antibody-induced cytotoxicities measured by chromium-51 release after incubation with C55, C90, or rituximab and effectors (NK cells or complement containing serum). NK effector cell to target ratio (E:T) of 20:1. […] Data are shown as the mean±s.d. of triplicate samples. *P<0.05 compared with NK cells by two-tailed Student's t-test.
FIG. 12 is a graph showing chimeric antibodies induced ADCC against BAFF-R expressing L cells. BAFF-R-expressing D2C L cells (targets) were labeled with chromium-51 followed by incubation overnight with chimeric mAb+NK cells (effector to target ratio, 20:1). Culture supernatant was analyzed for released chromium.
as §1

[4] = system: RS4; 11 (acute lymphoblastic leukemia, ALL); test: In vivo RS4;11 ALL tumor model, antibody treatment; parameters: species or system NSG mice; settings: 200 μg antibody + NK-92-176V cells + IL-2 IV
Excerpt: (§4) FIG. 4A is a schematic showing treatment schedule following Day 0 tumor challenge with minimum lethal dose of tumors. Treatments were given by IV tail vein injections. FIGS. 4B and 4C are images showing chimeric antibodies targeting human BAFF-R elicited in vivo therapeutic effects against B-cell tumors. Bioluminescence images of mice challenged with luciferase-expressing tumors: JeKo-1 (MCL) (FIG. 4B) or RS4; 11 (ALL) (FIG. 4C). Experimental groups received treatment of chimeric BAFF-R mAbs (C55 or C90, as indicated). Control group mice received PBS, NK cells alone, or rituximab on the same schedule. Data are representative of three independent experiments.
as §3

Mino cells = test: Internalization of antibody on Mino cells; assay type: cell-based, human; settings: 37° C. for 1 hour
Protocol: Mino cells were incubated with mAb C90 (0.05 μg/10^6 cells) at 4° C. for 20 minutes followed by incubation at 37° C. for 1 hour. Flow cytometry analysis was performed with anti-mouse IgG-APC. Cells were gated for surface localized antibodies (OUT) and loss of cell surface staining (IN).

JeKo-1 (MCL) = test: In vivo JeKo-1 MCL tumor model, antibody treatment; parameters: species or system NSG mice; settings: 200 μg antibody + NK-92-176V cells + IL-2 IV, vs PBS or NK cells alone
Excerpt: as §4, §3

B1: C55: chimeric mAb from clone 55 containing human IgG1 constant regions (antibody, V domains shown)
VH: QVTLKESGPGILKPSQTLSLTCSFSGFSLSTSGMGVGWIRQPSGKGLEWLAHIWWDDDKYYNSSLKSHLTISKDTSRNQVFLKITSVDTADTATYYCARSFGYGLDYWGQGTTLTVSS
VL: DIQMTQTTSSLSASLGDRVTISCSASQDISNYLNWYQQKPDGTVKLLIYYTSSLHSGVPSRFSGSGSGTDYSLTISSLEPEDIATYYCHQFSELPWTFGGGTKLEIK
killing by ADCC [1]: sensitive to killing by ADCC | sensitivity to antibody-mediated cytotoxicity (JeKo-1-CD20-KO clone 25): retained sensitivity | tumor free and long-term overall survival (JeKo-1-CD20-KO; 80-day): significant antitumor effects | tumor burden by bioluminescent imaging (JeKo-1-CD20-KO; Day 20): no visible tumors | direct binding to NHL lines [2]: exhibited direct binding | antitumor effects (Z-138): significant effects | antibody-dependent cell-mediated cytotoxicity (ADCC) [3]: elicited antibody-dependent cell-mediated cytotoxicity (ADCC) specifically against BAFF-R-expressing L cells and JeKo-1 | tumor growth (bioluminescence) [4]: markedly retarded tumor growth | internalization upon binding BAFF-R (Mino cells): limited internalization | tumor growth (bioluminescence) (JeKo-1 (MCL)): significant retardation of tumor growth
